In doi:10.1101/2020.09.30.318261 (bioRxiv, 2020):

Legend:
Assay in all cases: ELISA
[1] = target: SARS-CoV-2 spike S1B domain (receptor binding domain) (SARS-CoV-2 Wuhan-Hu-1, UniProt P0DTC2)
[2] = target: SARS-CoV spike S1B domain (receptor binding domain) (SARS-CoV Urbani, UniProt P59594)
[3] = target: WIV16 spike receptor binding domain (S1B domain) (SARS-like coronavirus WIV16, strain)

Measured: binding result

B1: human monoclonal antibody 47D11 (antibody, V domains shown)
VH: QVQLQESGPGLVKPSETLSLTCSVSGGSISSHYWSWIRQPPGKGLEWIGYIYYSGSTNHNPSLKSRVTISVDTSKNQFSLKLSSVTAADTAVYYCARGVLLWFGEPIFEIWGQGTMVTVSS
VL: EIVMTQSPATLSVSPGERATLSCRASQSVSSSLAWYQQKPGQAPRLLIYGASTRAPGIPARFSGSGSGTEFTLTISSLQSEDFAVYYCQQYNNWPLTFGGGTKVEI
binds: all assays above
